From US20050283857A1 come the findings set out here.

In assay [1] the target is Manduca sexta cadherin Bt-R1a, full length, expressed in Drosophila S2 cells (Manduca sexta). Kind of assay: 125I-Cry1Ab toxin binding saturation assay on S2 cells; dissociation constant (Kcom).
The target in assay [2] is Cad12 truncated Bt-R1a cadherin expressed in S2 cells (Manduca sexta). The description is as above.
Assay [3] deals with Cad11-12 truncated Bt-R1a cadherin expressed in S2 cells (Manduca sexta). The assay is described as above.
Assay [4] deals with Cad7-12 truncated Bt-R1a cadherin expressed in S2 cells (Manduca sexta). Put plainly: 125I-Cry1Ab toxin binding saturation assay on S2 cells; concentration of receptors.
The target of assay [5] is Manduca sexta cadherin Bt-R1a, full length, expressed in Drosophila S2 cells (Manduca sexta). The assay is described as above.
Assay [6] has as its target Cad12 truncated Bt-R1a cadherin expressed in S2 cells (Manduca sexta). The description is as above.
Assay [7] concerns the target Cad11-12 truncated Bt-R1a cadherin expressed in S2 cells (Manduca sexta). The assay is described as above.
Assay [8] has the same target. Put plainly: 125I-Cry1Ab saturation binding on S2 cell suspensions.

As a reminder, the Kd is the free concentration of one partner at which half of the binding sites on the other are occupied at equilibrium, for simple one-to-one binding. Read a low Kd as tighter binding.

Cry1Ab toxin (ligand): the Kd in assay [1] was found to be 3.55 nM; in assay [2], 2.87 nM; in assay [3], 3.52 nM. Moreover, the Bmax (fmoles/mg protein) was determined as 506 in assay [4], 625 in assay [5], 1410 in assay [6] and 3320 in assay [7]. This substance returned a fold higher concentration of binding sites than Cad12 in assay [8] of 3 fold.
